{"source": "patent US7629135B2", "about": "“Toll-like receptor agonists and antagonists and methods of use thereof” (The Board of Trustees of the University of Illinois, priority 2006, dated 2009)", "molecules": {"B1": {"name": "SAA: Recombinant human SAA purchased from PeproTech; major acute-phase protein of 104 amino acids (protein, UniProt P0DJI8 19-122, looked up)", "Serum amyloid A-1 protein": "RSFFSFLGEAFDGARDMWRAYSDMREANYIGSDKYFHARGNYDAAKRGPGGAWAAEVITDARENIQRFFGHGAEDSLADQAANEWGRSGKDPNHFRPAGLPEKY"}}, "key": {"G-CSF transcript in BMDM": {"test_system": "G-CSF transcript in BMDM", "experiment": "Cytokine transcript induction in BMDM (RT-PCR, real-time PCR)", "assay_type": "cell-based, mouse", "conditions": "SAA 1 μM", "protocol": "To investigate the mechanism for SAA-induced G-CSF production, the level of G-CSF transcript in SAA-stimulated BMDM was determined. […] The induction of G-CSF transcript peaked at 4 h after SAA stimulation. Since transcription of the G-CSF gene involves NF-κB binding to the RelA/p65 consensus element in the CK-1 site of the G-CSF promoter (Dunn et al., 1994; Hareng and Hartung, 2002), the role of NF-κB in SAA-stimulated G-CSF expression was determined. […] Using oligonucleotide probe based on the sequence of the CK-1 site (−161 to −152 in the G-CSF promoter), a protein •DNA complex (FIG. 2C) was identified. […] Inclusion of a RelA/p65 antibody blocking peptide in the assay abrogated the immunoprecipitation (FIG. 2D).\nTLR2 mediates the effect of SAA in G-CSF expression and neutrophila: To further determine a role of TLR2 in SAA-stimulated G-CSF expression and neutrophilia, wild-type and tlr2^−/− BMDM were stimulated with SAA (1 μM) and the level of G-CSF transcript (FIG. 5A) was determined. SAA induced a 37-fold induction of the mouse G-CSF transcript within 2 h of stimulation. […] Under similar experimental conditions, SAA stimulated increases in the transcripts of M-CSF (encoded by csf1; 11-fold over basal) IL-12p40 (33-fold) and IL-1 receptor antagonist (2.7-fold). In tlr2^−/− BMDM, the SAA-stimulated induction of these transcripts was reduced by 84% (M-CSF), 86% (IL-12p40), and 80% (IL-1 receptor antagonist), respectively. […] The effects of TLR2 gene deletion on SAA-induced G-CSF production and neutrophilia were determined in vivo. Subcutaneous injection of SAA was carried out in wild-type and tlr2^−/− mice for up to 7 days.\nMeasurement of G-CSF expression: To measure the secreted G-CSF from human monocytes and mouse macrophages in vitro, cells were placed in serum-free DMEM medium and stimulated with the indicated ligands. Cell-free supernatants were collected by centrifugation at 1,000×g for 30 sec and assayed for human or mouse G-CSF using ELISA. Human PBMC were used as 2×10^6 cells/ml/sample, and mouse BMDM were seeded at 10^6 cells/ml and used as 0.5 ml/sample. To measure mouse plasma G-CSF, blood samples were collected and centrifuged at 1,000-2,000×g for 10 min at 4° C. Plasma samples were appropriately diluted and then checked for G-CSF concentration using ELISA. To measure mouse G-CSF transcripts, mouse […] (10^6 cells/ml, 5 ml/sample) were stimulated with 1 μM SAA for different periods of time. Total RNA was isolated with an RNeasy isolation kit (Qiagen) and cDNA was prepared with Superscript reverse transcriptase (Invitrogen). PCR amplification of G-CSF transcripts was accomplished with specific primers (F346: 5′-[…]-3′ (SEQ ID NO:3) and R980: 5′-CAGGGCTCACTGATTT TTTGG-3′) (SEQ ID NO:4), generating a 634-bp fragment. M-actin gene (a 469 bp fragment) was used for verification of equal loading and of RT-PCR efficiency. Real-time quantitative PCR was performed on a ABI PRISM 7000 Sequence Detection System (Applied Biosystems) as described previously (He et al., 2006). All data were analyzed with the ABI PRISM 7000 SDS software (version 1.1). Relative level of mRNA for G-CSF was determined by normalizing with β-actin mRNA level. The sequences of the primers used are: F229 (5′-[…]-3′) (SEQ ID NO:5) and R502 (5′-[…]-3′) (SEQ ID NO:6) for G-CSF and F413 (5′-CCCTAAGGCCAACCGTGAA-3′) (SEQ ID NO:7) and R882 (5′-[…]-3′) (SEQ ID NO:8) for β-actin."}, "C57BL/6 mice": {"test_system": "C57BL/6 mice", "experiment": "SAA-induced neutrophilia in mice", "assay_type": "in vivo, mouse", "protocol": "SAA stimulates neutrophilia through G-CSF: To investigate whether SAA-induced G-CSF secretion contributes to neutrophilia, in vivo studies were conducted with daily administration of SAA in mice. C57BL/6 mice were injected subcutaneously (s.c.) with a daily dose of 120 μg SAA/kg body weight (˜3 μg of SAA each mouse) for 7 consecutive days. At different time points after the injection was initiated, blood neutrophil numbers were determined and the results were compared to neutrophil numbers prior to SAA administration. […] To establish a causal relationship between SAA-induced G-CSF production and neutrophilia in mice, wild-type C57BL/6 mice wre compared with csf3^−/− mice for changes in neutrophil count.\nSAA-induced neutrophilia: For analysis of SAA-induced neutrophil increase, SAA was injected subcutaneously into both G-CSF deficient (csf3^−/−) (n=5) and csf3^+/+ (n=5), age- and sex-matched littermates (8-9 weeks, male), at doses of 120 μg/kg/d in 200 μl PBS. SAA was administered daily for 7 consecutive days (168 h). Blood samples were collected before and at 48, 120, and 168 h after the initial SAA injection. Age and sex-matched mice of both tlr2^−/− (n=7) and C57BL/6 (n=7) were also used for this experiment. Blood was collected by eye puncture using heparinized capillaries and placed into EDTA-treated tubes. Total white blood cell (WBC) count and WBC differential count were determined using a Hemavet 950FS multispecies hematology analyzer (Drew Scientific)."}}}
{"molecule": "B1", "values": [{"measurement": "reduction of G-CSF transcript induction in tlr2−/− vs wild-type BMDM", "setting": "G-CSF transcript in BMDM", "value": 94, "unit": "%"}, {"measurement": "reduction of IL-1 receptor antagonist transcript induction in tlr2−/− BMDM", "setting": "G-CSF transcript in BMDM", "value": 80, "unit": "%"}, {"measurement": "reduction of IL-12p40 transcript induction in tlr2−/− BMDM", "setting": "G-CSF transcript in BMDM", "value": 86, "unit": "%"}, {"measurement": "reduction of M-CSF transcript induction in tlr2−/− BMDM", "setting": "G-CSF transcript in BMDM", "value": 84, "unit": "%"}, {"measurement": "time of peak induction of G-CSF transcript", "setting": "G-CSF transcript in BMDM; BMDM, RT-PCR", "value": 4, "unit": "h"}, {"measurement": "induction of G-CSF transcript over basal level", "setting": "G-CSF transcript in BMDM; tlr2−/− BMDM", "value": 2, "unit": "fold"}, {"measurement": "increase in IL-1 receptor antagonist transcript", "setting": "G-CSF transcript in BMDM; wild-type BMDM", "value": 2.7, "unit": "fold"}, {"measurement": "increase in IL-12p40 transcript", "setting": "G-CSF transcript in BMDM; wild-type BMDM", "value": 33, "unit": "fold"}, {"measurement": "increase in M-CSF transcript over basal", "setting": "G-CSF transcript in BMDM; wild-type BMDM", "value": 11, "unit": "fold"}, {"measurement": "induction of mouse G-CSF transcript", "setting": "G-CSF transcript in BMDM; wild-type BMDM, within 2 h, real-time PCR", "value": 37, "unit": "fold"}, {"measurement": "peripheral blood neutrophil numbers", "setting": "C57BL/6 mice; C57BL/6 mice, SAA 120 μg/kg s.c. daily for 7 days, vs PBS, from 48 h", "value": "significant rise of neutrophil numbers"}, {"measurement": "SAA-stimulated increase in peripheral blood neutrophils in tlr2−/− mice vs wild-type", "setting": "C57BL/6 mice; SAA s.c. up to 7 days", "value": "significantly lower"}, {"measurement": "peripheral blood neutrophil count response in csf3−/− mice vs wild-type", "setting": "C57BL/6 mice; csf3−/− mice, SAA 120 μg/kg/d s.c., 48, 120 and 168 h", "value": "significantly reduced response"}]}
